According to article doi:10.1101/2022.12.26.521971:
pKd: −log10 of the molar value. “And” between values parts separate entries of the source, which are not always exact repeats. Identical values can stand only once.

How the values were obtained:
[1] = molecular target: wild-type rat Neurotensin Receptor 1 (rNTSR1) (rat) (UniProt P20789); experiment: radioligand binding
[2] = molecular target: wild-type human Neurotensin Receptor 1 (hNTSR1) (human) (UniProt P30989); experiment: radioligand binding
wild-type human Neurotensin Receptor 1 (hNTSR1) (human), sequence (P30989 whole entry): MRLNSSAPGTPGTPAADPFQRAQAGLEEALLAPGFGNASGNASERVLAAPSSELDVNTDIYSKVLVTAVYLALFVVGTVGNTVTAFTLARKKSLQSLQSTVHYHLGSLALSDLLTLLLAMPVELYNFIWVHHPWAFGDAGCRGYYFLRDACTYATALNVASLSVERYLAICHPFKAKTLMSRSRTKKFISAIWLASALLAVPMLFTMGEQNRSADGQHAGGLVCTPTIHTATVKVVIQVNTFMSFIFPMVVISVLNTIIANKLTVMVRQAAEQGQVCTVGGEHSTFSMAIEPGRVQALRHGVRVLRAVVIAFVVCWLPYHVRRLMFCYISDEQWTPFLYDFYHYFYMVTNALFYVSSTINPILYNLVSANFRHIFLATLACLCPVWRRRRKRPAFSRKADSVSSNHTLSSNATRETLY

wild-type rat Neurotensin Receptor 1 (rNTSR1) (rat), sequence (P20789 whole entry): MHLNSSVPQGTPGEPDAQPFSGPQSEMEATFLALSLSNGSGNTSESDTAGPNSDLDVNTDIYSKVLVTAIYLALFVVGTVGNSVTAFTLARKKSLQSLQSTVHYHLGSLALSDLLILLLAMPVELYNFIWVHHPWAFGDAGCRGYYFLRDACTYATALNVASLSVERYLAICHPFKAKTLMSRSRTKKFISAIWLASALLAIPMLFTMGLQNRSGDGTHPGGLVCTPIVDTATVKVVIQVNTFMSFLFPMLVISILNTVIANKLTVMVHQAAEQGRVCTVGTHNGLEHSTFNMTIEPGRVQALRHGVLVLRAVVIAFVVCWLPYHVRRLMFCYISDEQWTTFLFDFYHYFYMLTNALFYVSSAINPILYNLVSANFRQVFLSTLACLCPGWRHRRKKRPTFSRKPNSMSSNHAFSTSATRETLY

[3H]Neurotensin (peptide) was tested, and the pKd [1] was 8.64 and 9.17 and the pKd [2] was 8.67 and 9.04.
